This note sets out measurements from US20180087039A1.

No end group written: not given here.

For this assay, the target named is fibrinogen (free fibrinogen in rat plasma) (rat) (UniProt P06399). In words: cell-based or functional assay.

In turn, RTLAFVRFKKKAAVV-{K(lauroyl)-NH2} (also: self-assembled nanofiber) [RTL PA nanofiber (…(K)-C12 peptide amphiphile)] displayed a free fibrinogen level in plasma after incubation ex vivo with RTL PA (80 µM) of less than 36 mg/dL.
